From patent US20240100162A1 (published 2024)

Tests used:
[1] = target: T1, MAGE-B2 peptide, V2I peptide on HLA-A*02:01 (human); test: killing
T1 peptide: GIYDGEEHSV

[2] = target: T2, MAGE-B2 peptide, V2M peptide on HLA-A*02:01 (human); test: killing
T2 peptide: GMYDGEEHSV

[3] = target: T3, MAGE-B2 peptide, E7M peptide on HLA-A*02:01 (human); test: killing
T3 peptide: GVYDGEMHSV

[4] = target: T4, MAGE-B2 peptide, H8N peptide on HLA-A*02:01 (human); test: killing
T4 peptide: GVYDGEENSV

[5] = target: T5, MAGE-B2 peptide, S9D peptide on HLA-A*02:01 (human); test: killing
T5 peptide: GVYDGEEHDV

[6] = target: T6, MAGE-B2 peptide, S9W peptide on HLA-A*02:01 (human); test: killing
T6 peptide: GVYDGEEHWV

[7] = target: T7, MAGE-B2 peptide, H8Y peptide on HLA-A*02:01 (human); test: killing
T7 peptide: GVYDGEEYSV

[8] = target: T8, MAGE-B2 peptide, V10I peptide on HLA-A*02:01 (human); test: killing
T8 peptide: GVYDGEEHSI

[9] = target: T9, MAGE-B2 peptide, Y3F peptide on HLA-A*02:01 (human); test: killing
T9 peptide: GVFDGEEHSV

[10] = target: T10, MAGE-B2 peptide, D4C peptide on HLA-A*02:01 (human); test: killing
T10 peptide: GVYCGEEHSV

[11] = target: T11, MAGE-B2 peptide, E6T peptide on HLA-A*02:01 (human); test: killing
T11 peptide: GVYDGTEHSV

[12] = target: T12, MAGE-B2 peptide, S9G peptide on HLA-A*02:01 (human); test: killing
T12 peptide: GVYDGEEHGV

[13] = target: T13, MAGE-B2 peptide, S9Q peptide on HLA-A*02:01 (human); test: killing
T13 peptide: GVYDGEEHQV

[14] = target: T14, MAGE-B2 peptide, E7N peptide on HLA-A*02:01 (human); test: killing
T14 peptide: GVYDGENHSV

[15] = target: T15, MAGE-B2 peptide, H8W peptide on HLA-A*02:01 (human); test: killing
T15 peptide: GVYDGEEWSV

[16] = target: T16, MAGE-B2 peptide, H8G peptide on HLA-A*02:01 (human); test: killing
T16 peptide: GVYDGEEGSV

[17] = target: T17, MAGE-B2 peptide, H8F peptide on HLA-A*02:01 (human); test: killing
T17 peptide: GVYDGEEFSV

[18] = target: T18, MAGE-B2 peptide, S9P peptide on HLA-A*02:01 (human); test: killing
T18 peptide: GVYDGEEHPV

[19] = target: T19, MAGE-B2 peptide, D4N peptide on HLA-A*02:01 (human); test: killing
T19 peptide: GVYNGEEHSV

[20] = target: T20, MAGE-B2 peptide, E7D peptide on HLA-A*02:01 (human); test: killing
T20 peptide: GVYDGEDHSV

[21] = target: T21, MAGE-B2 peptide, E7C peptide on HLA-A*02:01 (human); test: killing
T21 peptide: GVYDGECHSV

[22] = target: T22, MAGE-B2 peptide, S9C peptide on HLA-A*02:01 (human); test: killing
T22 peptide: GVYDGEEHCV

[23] = target: T23, MAGE-B2 peptide, E7Y peptide on HLA-A*02:01 (human); test: killing
T23 peptide: GVYDGEYHSV

[24] = target: T24, MAGE-B2 peptide, E7H peptide on HLA-A*02:01 (human); test: killing
T24 peptide: GVYDGEHHSV

[25] = target: T25, MAGE-B2 peptide, S9A peptide on HLA-A*02:01 (human); test: killing
T25 peptide: GVYDGEEHAV

[26] = target: T26, MAGE-B2 peptide, E6V peptide on HLA-A*02:01 (human); test: killing
T26 peptide: GVYDGVEHSV

[27] = target: T27, MAGE-B2 peptide, E7Q peptide on HLA-A*02:01 (human); test: killing
T27 peptide: GVYDGEQHSV

[28] = target: T28, MAGE-B2 peptide, S9T peptide on HLA-A*02:01 (human); test: killing
T28 peptide: GVYDGEEHTV

[29] = target: T29, MAGE-B2 peptide, H8K peptide on HLA-A*02:01 (human); test: killing
T29 peptide: GVYDGEEKSV

[30] = target: T30, MAGE-B2 peptide, V2L peptide on HLA-A*02:01 (human); test: killing
T30 peptide: GLYDGEEHSV

[31] = target: T31, MAGE-B2 peptide, H8P peptide on HLA-A*02:01 (human); test: killing
T31 peptide: GVYDGEEPSV

[32] = target: T32, MAGE-B2 peptide, G5S peptide on HLA-A*02:01 (human); test: killing
T32 peptide: GVYDSEEHSV

[33] = target: T33, MAGE-B2 peptide, S9V peptide on HLA-A*02:01 (human); test: killing
T33 peptide: GVYDGEEHVV

[34] = target: T34, MAGE-B2 peptide, S9E peptide on HLA-A*02:01 (human); test: killing
T34 peptide: GVYDGEEHEV

[35] = target: T35, MAGE-B2 peptide, V10L peptide on HLA-A*02:01 (human); test: killing
T35 peptide: GVYDGEEHSL

[36] = target: T36, MAGE-B2 peptide, V2T peptide on HLA-A*02:01 (human); test: killing
T36 peptide: GTYDGEEHSV

[37] = target: T37, MAGE-B2 peptide, S9N peptide on HLA-A*02:01 (human); test: killing
T37 peptide: GVYDGEEHNV

[38] = target: T38, MAGE-B2 peptide, V10A peptide on HLA-A*02:01 (human); test: killing
T38 peptide: GVYDGEEHSA

[39] = target: T39, MAGE-B2 peptide, S9I peptide on HLA-A*02:01 (human); test: killing
T39 peptide: GVYDGEEHIV

[40] = target: T40, MAGE-B2 peptide, E7L peptide on HLA-A*02:01 (human); test: killing
T40 peptide: GVYDGELHSV

[41] = target: T41, MAGE-B2 peptide on HLA-A*02:01 (human); test: multimer staining
T41 peptide: GVYDGEEHSV

Measured: binding result

B1: TCR3 (TCR, V domains shown)
Valpha: AQKVTQAQTEISVVEKEDVTLDCVYETRDTTYYLFWYKQPPSGELVFLIRRNSFDEQNEISGRYSWNFQKSTSSFNFTITASQVVDSAVYFCALSVLRMDSSYKLIFGSGTRLLVRP
Vbeta: NAGVTQTPKFRVLKTGQSMTLLCAQDMNHEYMYWYRQDPGMGLRLIHYSVGEGTTAKGEVPDGYNVSRLKKQNFLLGLESAAPSQTSVYFCASSLQGAGQPQHFGDGTRLSIL
recognises: [1] | [2] | [3] | [4] | [5] | [6] | [7] | [8] | [9] | [10] | [11] | [12] | [13] | [14] | [15] | [16] | [17] | [18] | [19] | [20] | [21] | [22] | [23] | [24] | [25] | [26] | [27] | [28] | [29] | [30] | [31] | [32] | [33] | [34] | [35] | [36] | [37] | [38] | [39] | [40] | [41]
